Assay results reported in publication doi:10.1101/2025.05.15.654344 (bioRxiv, 2025).
Positions count from the first letter of the chain named. Names and notes keep the numbering of the source.

B1: D-dopachrome tautomerase (D-DT or MIF-2), wild type (natural protein, human, UniProt P30046 1-118, looked up)
chain: MPFLELDTNLPANRVPAGLEKRLCAAAASILGKPADRVNVTVRPGLAMALSGSTEPCAQLSISSIGVVGTAEDNRSHSAHFFEFLTKELALGQDRILIRFFPLESWQIGKIGTVMTFL
B2: WT MIF-2 bound to Ebselen (Cys23 covalently modified) (natural protein, human, UniProt P30046 1-118, looked up)
chain: B1 chain
modifications: Cys23 covalently modified by Ebselen
B3: C56S MIF-2 bound to Ebselen (Cys23 covalently modified) (natural protein, human, UniProt P30046 1-118, looked up)
chain: B1 chain with C57S
modifications: Cys23 covalently modified by Ebselen
B4: MIF-2 C56S variant (natural protein, human, UniProt P30046 1-118, looked up)
chain: B1 chain with C57S

Target: the molecule itself
Test: NMR spin relaxation

Protein	stoichiometry N
B1	3
B2	3
B3	3
B4	3
